Reference: patent publication US20210238260A1 (published 2021)
Substitutions are numbered along the chain they refer to. Numbers in names are those of the source.

T1: Factor VIIIa (FVIIIa), from recombinant FVIII (Kogenate FS; Bayer healthcare) activated with alpha-thrombin (UniProt P00451 20-2351)
T1 sequence (looked up): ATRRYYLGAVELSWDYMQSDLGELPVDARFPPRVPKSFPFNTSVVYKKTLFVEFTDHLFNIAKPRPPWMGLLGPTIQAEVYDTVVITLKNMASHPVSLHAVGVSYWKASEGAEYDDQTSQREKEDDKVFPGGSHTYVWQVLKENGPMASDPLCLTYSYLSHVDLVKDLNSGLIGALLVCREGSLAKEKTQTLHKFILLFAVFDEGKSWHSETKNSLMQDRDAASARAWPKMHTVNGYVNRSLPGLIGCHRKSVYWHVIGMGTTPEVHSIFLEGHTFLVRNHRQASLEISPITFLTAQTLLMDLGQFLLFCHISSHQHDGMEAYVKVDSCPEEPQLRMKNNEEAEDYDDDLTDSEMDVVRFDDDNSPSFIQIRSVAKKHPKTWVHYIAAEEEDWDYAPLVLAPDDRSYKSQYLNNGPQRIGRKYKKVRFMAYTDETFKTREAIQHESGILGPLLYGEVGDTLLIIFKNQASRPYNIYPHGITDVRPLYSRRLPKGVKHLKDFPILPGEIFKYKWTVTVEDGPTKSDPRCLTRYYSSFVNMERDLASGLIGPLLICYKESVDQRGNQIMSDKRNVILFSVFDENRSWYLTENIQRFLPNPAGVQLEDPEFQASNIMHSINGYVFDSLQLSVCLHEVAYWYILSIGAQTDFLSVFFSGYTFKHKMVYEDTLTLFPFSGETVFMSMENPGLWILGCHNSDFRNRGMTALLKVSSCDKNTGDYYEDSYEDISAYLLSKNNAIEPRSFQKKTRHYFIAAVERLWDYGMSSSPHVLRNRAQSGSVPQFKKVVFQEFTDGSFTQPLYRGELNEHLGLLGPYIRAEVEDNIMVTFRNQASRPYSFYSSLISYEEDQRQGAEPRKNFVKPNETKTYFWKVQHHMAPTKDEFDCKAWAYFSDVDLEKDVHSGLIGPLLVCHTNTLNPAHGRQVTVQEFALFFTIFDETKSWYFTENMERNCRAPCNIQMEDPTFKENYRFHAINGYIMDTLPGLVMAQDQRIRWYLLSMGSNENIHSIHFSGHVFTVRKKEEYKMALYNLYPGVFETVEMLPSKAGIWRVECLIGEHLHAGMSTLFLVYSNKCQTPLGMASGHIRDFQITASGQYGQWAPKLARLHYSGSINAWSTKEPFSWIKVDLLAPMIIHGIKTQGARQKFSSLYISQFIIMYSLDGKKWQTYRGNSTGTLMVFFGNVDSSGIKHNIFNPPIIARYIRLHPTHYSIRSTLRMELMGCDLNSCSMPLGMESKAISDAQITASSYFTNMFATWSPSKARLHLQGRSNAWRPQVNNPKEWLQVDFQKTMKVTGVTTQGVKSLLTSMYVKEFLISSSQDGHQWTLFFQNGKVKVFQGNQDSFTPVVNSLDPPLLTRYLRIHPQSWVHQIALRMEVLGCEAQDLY

B1: FIXa variant I251S/R318Y/R338E/E410N (enzyme)
light: YNSGKLEEFVQGNLERECMEEKCSFEEAREVFENTERTTEFWKQYVDGDQCESNPCLNGGSCKDDINSYECWCPFGFEGKNCELDVTCNIKNGRCEQFCKNSADNKVVCSCTEGYRLAENQKSCEPAVPFPCGRVSVSQTSKLTR
heavy: VVGGEDAKPGQFPWQVVLNGKVDAFCGGSIVNEKWIVTAAHCVETGVKITVVAGEHNIEETEHTEQKRNVSRIIPHHNYNAAINKYNHDIALLELDEPLVLNSYVTPICIADKEYTNIFLKFGSGYVSGWGRVFHKGYSALVLQYLRVPLVDRATCLESTKFTIYNNMFCAGFHEGGRDSCQGDSGGPHVTEVEGTSFLTGIISWGEECAMKGKYGIYTKVSRYVNWIKNKTKLT
notes: also called I86S/R150Y/R170E/E240N; I251S/R318Y/E410N/R338E
B2: FIXa variant R318Y/R338E/T343R/R403E/E410N (enzyme)
light: B1 light
heavy: B1 heavy with S71I, T163R, R223E
notes: also called R150Y/R170E/T175R/R233E/E240N
B3: FIXa variant R318Y/R338E/T343R/N346Y/R403E/E410N (enzyme)
light: B1 light
heavy: B1 heavy with S71I, T163R, N166Y, R223E
notes: also called R150Y/R170E/T175R/N178Y/R233E/E240N
B4: FIXa variant K228N/K247N/N249S/R318Y/R338E/R403E/E410N (enzyme)
light: B1 light
heavy: B1 heavy with K48N, K67N, N69S, S71I, R223E
notes: also called K63N/K82N/N84S/R150Y/R170E/R233E/E240N
B5: FIXa variant R318Y/R338E/N346Y/R403E/E410N (enzyme)
light: B1 light
heavy: B1 heavy with S71I, N166Y, R223E
notes: also called R150Y/R170E/N178Y/R233E/E240N
B6: FIXa variant K247N/N249S/N260S/R318Y/R338E/R403E/E410N (enzyme)
light: B1 light
heavy: B1 heavy with K67N, N69S, S71I, N80S, R223E
notes: also called K82N/N84S/N95S/R150Y/R170E/R233E/E240N
B7: FIXa variant R318Y/R338E/E410N/T412V (enzyme)
light: B1 light
heavy: B1 heavy with S71I, T232V
notes: also called R150Y/R170E/E240N/T242V
B8: FIXa variant R318Y/R338E/R403E/E410S (enzyme)
light: B1 light
heavy: B1 heavy with S71I, R223E, N230S
notes: also called R150Y/R170E/R233E/E240S
B9: FIXa variant R318Y/R338E/E410S (enzyme)
light: B1 light
heavy: B1 heavy with S71I, N230S
notes: also called R150Y/R170E/E240S
B10: FIXa variant I251S/R318Y/R338E/R403E/E410N (enzyme)
light: B1 light
heavy: B1 heavy with R223E
notes: also called I86S/R150Y/R170E/R233E/E240N
B11: FIXa variant R318Y/R338E/R403E/E410N/T412V (enzyme)
light: B1 light
heavy: B1 heavy with S71I, R223E, T232V
notes: also called R150Y/R170E/R233E/E240N/T242V
B12: FIXa variant K228N/K247N/N249S (enzyme)
light: B1 light
heavy: B1 heavy with K48N, K67N, N69S, S71I, Y138R, E158R, N230E
notes: also called K63N/K82N/N84S
B13: FIXa variant R318Y/R338E/T343R/N346D/R403E/E410N (enzyme)
light: B1 light
heavy: B1 heavy with S71I, T163R, N166D, R223E
notes: also called R150Y/R170E/T175R/N178D/R233E/E240N
B14: FIXa variant K247N/N249S/N260S (enzyme)
light: B1 light
heavy: B1 heavy with K67N, N69S, S71I, N80S, Y138R, E158R, N230E
notes: also called K82N/N84S/N95S
B15: FIXa variant R318Y/R338E/N346D/R403E/E410N (enzyme)
light: B1 light
heavy: B1 heavy with S71I, N166D, R223E
notes: also called R150Y/R170E/N178D/R233E/E240N

Legend:
[1] = target: T1, Factor VIIIa (FVIIIa), from recombinant …; test: ratio of KD-app of Catalyst Biosciences WT FIXa to KD-app of the variant, same Xase assay
Text: (§1) The activity of alpha-thrombin was then quenched by the addition of a highly specific thrombin inhibitor, hirudin, prior to initiating the assay.

[2] = target: T1, Factor VIIIa (FVIIIa), from recombinant …; test: apparent functional KD (KD-app): FX activation rate vs FVIIIa titration, fluorogenic Xase assay with PC/PS vesicles and Ca2+
Text: as §1

Row | Binder | KD-WT/KD-mut [1] [fold] | Kd [2] [nM]
1 | B1 | 16.7 | 5.7
2 | B2 | 6.6 | 14.5
3 | B3 | 6.1 | 15.6
4 | B4 | 0.9 | 100
5 | B5 | 2.4 | 39.6
6 | B6 | 1.5 | 65
7 | B7 | 10.7 | 8.9
8 | B8 | 1.8 | 53.1
9 | B9 | 14.1 | 6.8
10 | B10 | 1.5 | 62.7
11 | B11 | 1.7 | 55
12 | B12 | 0.8 | 113
13 | B13 | 1.3 | 76.2
14 | B14 | 0.6 | 147
15 | B15 | 0.9 | 110
